Consider 15 molecules from paper PMC10622577, “Structural basis for stabilisation of the RAD51 nucleoprotein filament by BRCA2” (Nature Communications, 2023).

Positions count from the first letter of the chain named. “Also recorded” adds a separate entry of the source. Where no end group is shown, it is not given here. MBP = maltose-binding protein (N-terminal fusion tag)

Data set [1] has as its system RAD51–ssDNA NPF. The data set is described as follows: EMSA of MBP-fusion TR2 mutants binding the RAD51-ssDNA NPF. To be noted: for binding of MBP-TR2 mutant to the RAD51 NPF: ssDNA 60 nt, His6-MBP-TR2 5 min, room temperature, 25 mM HEPES pH 7.5, 150 mM NaCl, 2 mM ATP, 5 mM CaCl2, repeated once. Set-up: species or system human. An excerpt:
The local resolution at the TR2 site was lower than for the global map, which complicated the model fitting for the peptide. Fitting with the correct sequence register was guided by the density of the large side chains in the highly conserved TR2 region 3296-KAFQPPR-3302 (Fig. 3A). To validate our molecular model of BRCA2 TR2 association with the RAD51 NPF, we performed a mutational analysis of the RAD51–TR2 interface, targeting residues that are predicted by the structure to be important for the RAD51-TR2 interaction (Fig. 4A, B). We generated TR2 mutants as Maltose-Binding Protein (MBP) fusion proteins (Supplementary Fig. 1) and measured by EMSA their ability to bind the RAD51 NPF.
Fig. 4 Structure-based mutational analysis of the BRCA2 TR2-RAD51 interface. A Multiple sequence alignment of BRCA2 TR2 sequences, coloured according to residue type (Hse: Homo sapiens; Gga: Gallus gallus; Xla: Xenopus laevis; Dre: […]). B Drawing of TR2 and RAD51 amino acids targeted for mutagenesis. Drawing style as in D–F of Fig. 3. C–E EMSA analysis of RAD51–ssDNA NPF binding by MBP-fusion TR2 mutants K3296A, Q3299A, R3302A (C); 3A (K3296A, Q3299, R3302A), 3D (K3296D, Q3299D, R3302D) (D); S3291A, F3298A (E). The TR2 peptide was used as a control. EMSA experiments repeated once. Source data are provided as a Source Data file.
An E.coli codon-optimised gene fragment encoding residues D3260 to Y3308 of human BRCA2 was synthesised (IDT) with flanking BamHI and HindIII restriction sites and ligated into the pMAT11 expression vector[44] (Addgene plasmid #112592) to express BRCA2 TR2 as a dual-tag His6-MBP (Maltose-Binding Protein) fusion protein. pMAT11 constructs for expression of BRCA2 TR2 mutants S3291A, F3298A, K3296A, Q3299A, R3302A, the triple K3296, Q3299, […] alanine (3A) and aspartic acid (3D) mutants were produced in the same way as the wild-type construct.
All His6-MBP-BRCA2 TR2 fusion proteins were expressed and purified in an identical manner. pMat11-His6-MBP-TR2 constructs were transformed into E.coli BL21(DE3)Rosetta2 and transformed cells were used to inoculate 2YT growth medium supplemented with 50 μg/ml ampicillin. Cells were cultured until an OD600 reading of 0.7 before induction with 0.5 mM IPTG. Cell pellets were resuspended in resuspension buffer and sonicated to lyse cells in the presence of EDTA-free protease inhibitor. Cell lysate supernatant was loaded on a 5-ml HisTrap HP column pre-equilibrated with His Buffer A before elution in 40% His Buffer B. Fractions containing the His6-MBP-BRCA2 TR2 protein were pooled and purified further by size-exclusion chromatography using a 16/600 Superdex S75 pg (Cytiva) column pre-equilibrated in storage buffer. To minimise the presence of proteolytically degraded protein, a single fraction at the front of the elution peak containing His6-MBP-TR2 was retained and concentrated to at least 100 μM before flash freezing in liquid nitrogen and storage at −80 °C.
To assess RAD51 nucleoprotein (NPF) formation, wild-type and mutant RAD51 proteins were incubated with DNA in buffer: 25 mM HEPES pH 7.5, 150 mM NaCl, 2 mM DTT, 2 mM ATP, 5 mM CaCl2 for 15 minutes at room temperature. For filament binding of the TR2 peptide or His6-MBP-TR2 protein, the RAD51 NPFs were incubated with TR2 for further 5 minutes at room temperature. For filament binding of BRC4, the BRC4 peptide was pre-mixed with RAD51 for 10 minutes at room temperature before addition of DNA. For experiments with mono-streptavidin (mSA)-capped DNA, mSA (Sigma) was added in 5× molar excess of biotin labels for 15 minutes at room temperature prior to the addition of RAD51. Concentrations are provided in figures and DNA sequences for each experiment are reported in Supplementary Table 1.
Before electrophoresis, samples were mixed with a 0.5:1 volume of 50% (w/v) sucrose solution and analysed on a pre-run 0.5% (w/v) agarose gel in 0.5× TB buffer at 35 V for 2.5 hours at 4 °C. […]

In data set [2] the target is T1, RAD51;BRCA2 TR2 peptide (Homo sapiens;Homo sapiens, UniProt Q06609;P51587 1-339;, |). The data set is described as follows: cryo-EM micrographs; TR2 1:0.5; filament bundling; EMSA: 25 mM HEPES pH 7.5, 150 mM NaCl, 2 mM DTT, 2 mM ATP, 5 mM CaCl2, room temperature; SPR: 25 mM HEPES pH 7.4, 100 mM NaCl, 2 mM DTT, 2 mM ATP, 5 mM CaCl2, 5 mM MgCl2. As to conditions: tags: untagged (co-expressed with His6-MBP-BRC4, pMBP4-RAD51);. (A gel shift assay detects complexes by their altered migration in electrophoresis.)

For data set [3], the target named is T2, human RAD51, wild type (human, UniProt Q06609 1-339).
T2 construct: RAD51, human DNA-strand exchange protein; In all assays RAD51 stood as a nucleoprotein filament on ss- or dsDNA with ATP and CaCl2; probably the whole, untagged protein; also called WT RAD51; RAD51 NPF; source: E. coli BL21(DE3)Rosetta2, co-expressed with His6-MBP-BRCA2 BRC4, purified (HisTrap, heparin, SEC)
T2 sequence: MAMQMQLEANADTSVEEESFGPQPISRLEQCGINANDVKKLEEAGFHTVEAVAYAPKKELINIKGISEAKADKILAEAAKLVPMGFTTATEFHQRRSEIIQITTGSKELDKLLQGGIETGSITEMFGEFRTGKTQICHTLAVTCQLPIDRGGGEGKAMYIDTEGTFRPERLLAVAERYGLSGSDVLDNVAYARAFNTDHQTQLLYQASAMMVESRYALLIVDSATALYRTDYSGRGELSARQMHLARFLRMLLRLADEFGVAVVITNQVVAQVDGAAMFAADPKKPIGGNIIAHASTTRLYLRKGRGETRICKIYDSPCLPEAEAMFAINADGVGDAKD
The data set is described as follows: native gel or EMSA; TR2 peptide titrated on RAD51 NPFs pre-formed on fluorescein-labelled ss- or dsDNA; 25 mM HEPES pH 7.5, 150 mM NaCl, 2 mM DTT, 2 mM ATP, 5 mM CaCl2, room temperature, TR2 added for 5 minutes; 0.5% agarose gel at 4 °C. As to conditions: both partners purified.

The target in data set [4] is T2, human RAD51, wild type. The data set is described as follows: native gel or EMSA; His6-MBP-TR2 fusion proteins added for 5 minutes to RAD51–ssDNA NPFs; 25 mM HEPES pH 7.5, 150 mM NaCl, 2 mM DTT, 2 mM ATP, 5 mM CaCl2, room temperature; 0.5% agarose gel. As to conditions: both partners purified.
For data set [5], the target named is T1, RAD51;BRCA2 TR2 peptide. The data set can be described thus: SPR; TR2 on preformed filament; ATP, Ca2+, Mg2+; EMSA: 25 mM HEPES pH 7.5, 150 mM NaCl, 2 mM DTT, 2 mM ATP, 5 mM CaCl2, room temperature; SPR: 25 mM HEPES pH 7.4, 100 mM NaCl, 2 mM DTT, 2 mM ATP, 5 mM CaCl2, 5 mM MgCl2. To be noted: tags: untagged (co-expressed with His6-MBP-BRC4, pMBP4-RAD51);. (Surface plasmon resonance follows binding to a sensor surface in real time, without labels.)

In data set [6] the target is T1, RAD51;BRCA2 TR2 peptide. The data set can be described thus: EMSA; TR2 enhances filament; ATP, Ca2+; EMSA: 25 mM HEPES pH 7.5, 150 mM NaCl, 2 mM DTT, 2 mM ATP, 5 mM CaCl2, room temperature; SPR: 25 mM HEPES pH 7.4, 100 mM NaCl, 2 mM DTT, 2 mM ATP, 5 mM CaCl2, 5 mM MgCl2. To be noted: tags: untagged (co-expressed with His6-MBP-BRC4, pMBP4-RAD51);.

As for “S3291A: His6-MBP fusion protein of BRCA2 TR2 mutant S3291A ({His6-MBP}-DDQKNCKKRRALDFLSRLPLPPPVSPICTFVAPAAQKAFQPPRSCGTKY; cysteine pairing not given here)”, in data set [1], the “binding of MBP-TR2 mutant to the RAD51 NPF” value is on record as “drastically reduced”. In data set [1] (ssDNA, Fig. 4E), the “residual binding of MBP-TR2 mutant to the RAD51 NPF” value was “still able to associate with the filament; also recorded: retains a degree of binding to the filament”.

In the case of “Q3299A: His6-MBP fusion protein of BRCA2 TR2 mutant Q3299A ({His6-MBP}-DDQKNCKKRRALDFLSRLPLPPPVSPICTFVSPAAQKAFAPPRSCGTKY; cysteine pairing not given here)”, the “binding of MBP-TR2 mutant to the RAD51 NPF” value in data set [1] is on record as “increased association with the filament”.

“F3298A: His6-MBP fusion protein of BRCA2 TR2 mutant F3298A ({His6-MBP}-DDQKNCKKRRALDFLSRLPLPPPVSPICTFVSPAAQKAAQPPRSCGTKY; cysteine pairing not given here)”: the “binding of MBP-TR2 mutant to the RAD51 NPF” value in data set [1] is listed as “abolished TR2 binding to the RAD51 NPF; also recorded: complete loss of TR2 binding”.

Consider “R3302A: His6-MBP fusion protein of BRCA2 TR2 mutant R3302A ({His6-MBP}-DDQKNCKKRRALDFLSRLPLPPPVSPICTFVSPAAQKAFQPPASCGTKY; cysteine pairing not given here)”, for which the “binding of MBP-TR2 mutant to the RAD51 NPF” value in data set [1] is reported as “modest decrease in filament binding”.

For “K3296A: His6-MBP fusion protein of BRCA2 TR2 mutant K3296A ({His6-MBP}-DDQKNCKKRRALDFLSRLPLPPPVSPICTFVSPAAQAAFQPPRSCGTKY; cysteine pairing not given here)”, the “binding of MBP-TR2 mutant to the RAD51 NPF” value in data set [1] was “modest decrease in filament binding”.

B1: 50-nt dsDNA Cy3 (dsDNA)
DNA 1: CCGACTGACGCTCAACATAGGTACCACACGGCGAGCTCGATGCACCTCCA
DNA 2: TGGAGGTGCATCGAGCTCGCGACAAACCTTCTATGTTGAGCGTCAGTCGG
Regarding B1, the binding result in data set [2] (label: 3' Cy3 on strand 1, blunt ends, internal mismatched bubble about 10 nt) is reported as “binds”.

B2: BRCA2 TR2 peptide spanning amino acids 3260 to 3308 (peptide, UniProt P51587 3260-3308, looked up)
peptide: DDQKNCKKRRALDFLSRLPLPPPVSPICTFVSPAAQKAFQPPRSCGTKY
notes: Only residues 3289 to 3304 are modelled in the PDB entries; source: synthetic peptide (synthesised commercially)
For B2, in data set [3], the binding result is “binds”.

B3: His6-MBP-BRCA2 TR2 R3302A (domain or fragment, human, UniProt P51587 3260-3308, looked up)
chain: B2 peptide with R43A
notes: BRCA2, human, TR2 motif, residues D3260 to Y3308; source: E. coli BL21(DE3)Rosetta2, purified (HisTrap, SEC); not shown: His6, N-terminal, kept; MBP, N-terminal, kept
With B3, the binding result in data set [4] is listed as “binds”.

B4: His6-MBP-BRCA2 TR2 K3296A (domain or fragment, human, UniProt P51587 3260-3308, looked up)
chain: B2 peptide with K37A
notes: as for B3
Consider B4, for which the binding result in data set [4] was “binds”.

B5: His6-MBP-BRCA2 TR2 Q3299A (domain or fragment, human, UniProt P51587 3260-3308, looked up)
chain: B2 peptide with Q40A
notes: as for B3
Take B5: in data set [4], the binding result is listed as “binds”.

Turning to TTTTTTTTTTTCGTGTGGTACTTTTTTTTTTT (ssDNA) [32-nt ssDNA Cy5], the binding result in data set [2] (label: 5' Cy5) is “binds”.

B6: 60-nt ssDNA biotin (ssDNA)
DNA: ATGGTGTGTGTAGGTTAATGTGAGGAGGAGAGGTGAAGAAGGAGGAGAGAAGAAGGAGGC
As to B6, the binding result in data set [5] (label: 5' biotin) is “binds”.

B7: 60-nt ssDNA FAM (ssDNA)
DNA: B6 DNA
On to B7, for which the binding result in data set [6] (label: 5' FAM) is recorded as “binds”.

B8: 60-bp dsDNA FAM (dsDNA)
DNA 1: B6 DNA
DNA 2: GCCTCCTTCTTCTCTCCTCCTTCTTCACCTCTCCTCCTCACATTAACCTACACACACCAT
Take B8: the binding result in data set [6] (label: 5' FAM on strand 1, blunt) was “binds”.

B9: 60-bp dsDNA biotin (dsDNA)
DNA 1: B6 DNA
DNA 2: B8 DNA 2
Turning to B9, the binding result in data set [5] (label: 5' biotin on strand 1, blunt) is given as “binds”.
